According to patent EP0952217A2:

Molecular target: SCCA1 recombinant protein expressed on transfected HepG2 and CHO cells (human) (UniProt P29508)
Test: virus-to-cell binding assay: transfected cells incubated 20 min with HBV-positive serum and washed, cell-associated HBV-DNA measured by hybrid capture

Sequence of UniProt P29508 (P29508 whole entry T357A): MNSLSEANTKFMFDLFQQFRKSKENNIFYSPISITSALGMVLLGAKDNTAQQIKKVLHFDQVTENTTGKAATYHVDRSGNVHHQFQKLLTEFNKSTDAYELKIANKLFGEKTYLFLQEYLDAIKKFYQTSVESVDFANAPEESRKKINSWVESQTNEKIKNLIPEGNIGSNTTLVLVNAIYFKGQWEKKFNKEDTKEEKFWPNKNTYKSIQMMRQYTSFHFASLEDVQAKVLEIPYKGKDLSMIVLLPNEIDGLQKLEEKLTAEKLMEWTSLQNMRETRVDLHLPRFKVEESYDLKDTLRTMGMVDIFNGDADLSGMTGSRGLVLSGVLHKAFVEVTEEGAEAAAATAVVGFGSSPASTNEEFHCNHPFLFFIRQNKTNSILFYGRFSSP

HBV viral particles from HBV-DNA positive serum of patients with acute hepatitis B
HBV-DNA value, fold over the control cell lines: > 8 .fold
